In paper PMC9482650, “Quantitative fragmentomics allow affinity mapping of interactomes” (Nature Communications, 2022):

T1: LIN7C, Q9NUP9
T1 sequence (Q9NUP9 88-185, limits assumed, looked up): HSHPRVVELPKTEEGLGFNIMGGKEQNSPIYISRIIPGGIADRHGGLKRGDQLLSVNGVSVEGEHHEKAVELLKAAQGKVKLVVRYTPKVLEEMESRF

T2: GRIP1_4, Q9Y3R0
T2 sequence (Q9Y3R0 467-571, limits assumed, looked up): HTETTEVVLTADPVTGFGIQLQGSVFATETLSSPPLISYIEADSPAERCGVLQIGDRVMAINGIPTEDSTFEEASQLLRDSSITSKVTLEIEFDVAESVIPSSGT

T3: CARD11, Q9BXL7
T3 sequence (Q9BXL7 662-765, limits assumed, looked up): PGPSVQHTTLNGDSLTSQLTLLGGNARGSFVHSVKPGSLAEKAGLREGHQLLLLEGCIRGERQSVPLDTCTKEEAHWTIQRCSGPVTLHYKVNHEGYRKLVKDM

T4: SHANK1, Q9Y566
T4 sequence (Q9Y566 658-767, limits assumed, looked up): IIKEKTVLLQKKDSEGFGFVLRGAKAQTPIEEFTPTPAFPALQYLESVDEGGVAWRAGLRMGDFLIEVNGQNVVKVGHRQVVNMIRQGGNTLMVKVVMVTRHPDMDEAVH

T5: SIPA1L2, Q9P2F8
T5 sequence (Q9P2F8 945-1036, limits assumed, looked up): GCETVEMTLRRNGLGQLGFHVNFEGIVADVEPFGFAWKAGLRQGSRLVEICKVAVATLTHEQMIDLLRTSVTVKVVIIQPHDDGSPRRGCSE

T6: RHPN1, Q8TCX5
T6 sequence (Q8TCX5 508-602, limits assumed, looked up): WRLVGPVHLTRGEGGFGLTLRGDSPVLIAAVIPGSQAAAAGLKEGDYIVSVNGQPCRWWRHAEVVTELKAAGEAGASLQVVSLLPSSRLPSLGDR

T7: PARD3B_1, Q8TEW8
T7 sequence (Q8TEW8 196-299, limits assumed, looked up): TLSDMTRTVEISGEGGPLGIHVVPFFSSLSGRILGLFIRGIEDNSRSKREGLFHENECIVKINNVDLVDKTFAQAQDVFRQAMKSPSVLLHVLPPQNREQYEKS

T8: MPDZ_12, O75970
T8 sequence (O75970 1857-1958, limits assumed, looked up): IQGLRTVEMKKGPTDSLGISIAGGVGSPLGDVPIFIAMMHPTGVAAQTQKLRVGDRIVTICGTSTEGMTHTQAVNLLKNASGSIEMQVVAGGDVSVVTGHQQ


Molecular target: MAGI2_6, Q86UL8
Sequence (Q86UL8 1141-1229): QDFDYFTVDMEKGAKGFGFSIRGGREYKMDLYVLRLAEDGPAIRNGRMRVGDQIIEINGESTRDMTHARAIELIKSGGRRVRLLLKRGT
Assay: holdup assay
Design: key: below the threshold = too weak to quantify, mostly under pKd 3.1 to 4
Settings: plain residues with an end cap or a label only (N-terminal biotin on a linker: ado-ado)

Row | pKd | Binder
1 | below the threshold | PKSNSSKEYV [CLDN7, O95471]
2 | below the threshold | DFKHTKSFII [JAM2, P57087]

Molecular target: LNX1_3, Q8TBB1
Sequence (Q8TBB1 500-596): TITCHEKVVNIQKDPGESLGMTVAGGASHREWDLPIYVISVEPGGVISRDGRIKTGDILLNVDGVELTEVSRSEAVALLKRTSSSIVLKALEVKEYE
Assay: holdup assay
Design: key: below the threshold = too weak to quantify, mostly under pKd 3.1 to 4
Settings: plain residues with an end cap or a label only (N-terminal biotin on a linker: ado-ado)

Row | pKd | Binder
3 | below the threshold | PKSNSSKEYV [CLDN7, O95471]
4 | below the threshold | DFKHTKSFII [JAM2, P57087]

Molecular target: NHERF2_2, Q15599
Sequence (Q15599 142-238): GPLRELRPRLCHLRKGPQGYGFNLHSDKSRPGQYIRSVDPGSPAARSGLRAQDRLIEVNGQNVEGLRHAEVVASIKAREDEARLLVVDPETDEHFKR
Assay: holdup assay
Design: key: below the threshold = too weak to quantify, mostly under pKd 3.1 to 4
Settings: plain residues with an end cap or a label only (N-terminal biotin on a linker: ado-ado)

Row | pKd | Binder
5 | below the threshold | PKSNSSKEYV [CLDN7, O95471]
6 | below the threshold | DFKHTKSFII [JAM2, P57087]

Molecular target: DLG1_3, Q12959
Sequence (Q12959 457-571): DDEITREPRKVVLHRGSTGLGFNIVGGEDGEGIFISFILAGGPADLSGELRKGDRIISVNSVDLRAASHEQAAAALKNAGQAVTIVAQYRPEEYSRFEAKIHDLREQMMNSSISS
Assay: holdup assay
Design: key: below the threshold = too weak to quantify, mostly under pKd 3.1 to 4
Settings: plain residues with an end cap or a label only (N-terminal biotin on a linker: ado-ado)

Row | pKd | Binder
7 | below the threshold | PKSNSSKEYV [CLDN7, O95471]
8 | below the threshold | DFKHTKSFII [JAM2, P57087]

Molecular target: PTPN3, P26045
Sequence (P26045 505-587): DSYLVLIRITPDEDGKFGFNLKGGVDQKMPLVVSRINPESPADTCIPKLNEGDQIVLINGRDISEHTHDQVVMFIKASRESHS
Assay: holdup assay
Design: key: below the threshold = too weak to quantify, mostly under pKd 3.1 to 4
Settings: plain residues with an end cap or a label only (N-terminal biotin on a linker: ado-ado)

Row | pKd | Binder
9 | below the threshold | PKSNSSKEYV [CLDN7, O95471]
10 | 3.81 | DFKHTKSFII [JAM2, P57087]

Molecular target: Inadl_6, Q8NI35
Sequence (Q8NI35 1058-1167): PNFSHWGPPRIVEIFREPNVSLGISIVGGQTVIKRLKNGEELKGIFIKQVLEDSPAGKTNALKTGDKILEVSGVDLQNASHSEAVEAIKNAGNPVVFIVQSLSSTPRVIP
Assay: holdup assay
Design: key: below the threshold = too weak to quantify, mostly under pKd 3.1 to 4
Settings: plain residues with an end cap or a label only (N-terminal biotin on a linker: ado-ado)

Row | pKd | Binder
11 | below the threshold | PKSNSSKEYV [CLDN7, O95471]
12 | below the threshold | DFKHTKSFII [JAM2, P57087]

Molecular target: T1, LIN7C, Q9NUP9
Assay: holdup assay
Design: key: below the threshold = too weak to quantify, mostly under pKd 3.1 to 4
Settings: plain residues with an end cap or a label only (N-terminal biotin on a linker: ado-ado)

Row | pKd | Binder
13 | 4.06 | PKSNSSKEYV [CLDN7, O95471]
14 | below the threshold | DFKHTKSFII [JAM2, P57087]

Molecular target: GRIP2_4, Q9C0E4
Sequence (Q9C0E4 446-548): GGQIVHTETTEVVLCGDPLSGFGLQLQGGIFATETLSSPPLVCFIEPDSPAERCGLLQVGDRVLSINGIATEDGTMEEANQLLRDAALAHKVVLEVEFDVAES
Assay: holdup assay
Design: key: below the threshold = too weak to quantify, mostly under pKd 3.1 to 4
Settings: plain residues with an end cap or a label only (N-terminal biotin on a linker: ado-ado)

Row | pKd | Binder
15 | below the threshold | PKSNSSKEYV [CLDN7, O95471]
16 | below the threshold | DFKHTKSFII [JAM2, P57087]

Molecular target: SNX27, Q96L92
Assay: holdup assay
Design: key: below the threshold = too weak to quantify, mostly under pKd 3.1 to 4
Settings: plain residues with an end cap or a label only (N-terminal biotin on a linker: ado-ado)

Row | pKd | Binder
17 | below the threshold | PKSNSSKEYV [CLDN7, O95471]
18 | below the threshold | DFKHTKSFII [JAM2, P57087]

Molecular target: NHERF4_1, Q86UT5-2
Sequence (Q86UT5 other isoform, or with tags, fused parts or gaps): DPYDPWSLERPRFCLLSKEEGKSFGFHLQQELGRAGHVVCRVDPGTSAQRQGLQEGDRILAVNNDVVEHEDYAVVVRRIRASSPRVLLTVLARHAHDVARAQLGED
Assay: holdup assay
Design: key: below the threshold = too weak to quantify, mostly under pKd 3.1 to 4
Settings: plain residues with an end cap or a label only (N-terminal biotin on a linker: ado-ado)

Row | pKd | Binder
19 | below the threshold | PKSNSSKEYV [CLDN7, O95471]
20 | below the threshold | DFKHTKSFII [JAM2, P57087]

Molecular target: FRMPD4, Q14CM0
Sequence (Q14CM0 67-160): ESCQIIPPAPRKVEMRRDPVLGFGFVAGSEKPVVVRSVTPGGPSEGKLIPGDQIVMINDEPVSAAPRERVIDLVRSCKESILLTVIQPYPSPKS
Assay: holdup assay
Design: key: below the threshold = too weak to quantify, mostly under pKd 3.1 to 4
Settings: plain residues with an end cap or a label only (N-terminal biotin on a linker: ado-ado)

Row | pKd | Binder
21 | below the threshold | PKSNSSKEYV [CLDN7, O95471]
22 | below the threshold | DFKHTKSFII [JAM2, P57087]

Molecular target: T2, GRIP1_4, Q9Y3R0
Assay: holdup assay
Design: key: below the threshold = too weak to quantify, mostly under pKd 3.1 to 4
Settings: plain residues with an end cap or a label only (N-terminal biotin on a linker: ado-ado)

Row | pKd | Binder
23 | below the threshold | PKSNSSKEYV [CLDN7, O95471]
24 | below the threshold | DFKHTKSFII [JAM2, P57087]

Molecular target: SCRIB_3, Q14160
Sequence (Q14160 999-1103): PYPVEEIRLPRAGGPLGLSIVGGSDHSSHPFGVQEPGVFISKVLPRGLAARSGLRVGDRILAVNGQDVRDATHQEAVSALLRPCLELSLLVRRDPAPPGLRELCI
Assay: holdup assay
Design: key: below the threshold = too weak to quantify, mostly under pKd 3.1 to 4
Settings: plain residues with an end cap or a label only (N-terminal biotin on a linker: ado-ado)

Row | pKd | Binder
25 | below the threshold | PKSNSSKEYV [CLDN7, O95471]
26 | 3.65 | DFKHTKSFII [JAM2, P57087]

Molecular target: FRMPD2_2, Q68DX3
Sequence (Q68DX3 944-1038): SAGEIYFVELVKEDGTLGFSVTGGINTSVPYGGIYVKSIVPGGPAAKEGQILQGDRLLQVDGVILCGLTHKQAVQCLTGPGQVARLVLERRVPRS
Assay: holdup assay
Design: key: below the threshold = too weak to quantify, mostly under pKd 3.1 to 4
Settings: plain residues with an end cap or a label only (N-terminal biotin on a linker: ado-ado)

Row | pKd | Binder
27 | below the threshold | PKSNSSKEYV [CLDN7, O95471]
28 | below the threshold | DFKHTKSFII [JAM2, P57087]

Molecular target: T3, CARD11, Q9BXL7
Assay: holdup assay
Design: key: below the threshold = too weak to quantify, mostly under pKd 3.1 to 4
Settings: plain residues with an end cap or a label only (N-terminal biotin on a linker: ado-ado)

Row | pKd | Binder
29 | below the threshold | PKSNSSKEYV [CLDN7, O95471]
30 | below the threshold | DFKHTKSFII [JAM2, P57087]

Molecular target: Inadl_1, Q8NI35
Sequence (Q8NI35 113-229): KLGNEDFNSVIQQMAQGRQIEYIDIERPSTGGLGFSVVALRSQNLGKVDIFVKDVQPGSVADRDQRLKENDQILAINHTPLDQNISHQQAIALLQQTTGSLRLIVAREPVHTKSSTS
Assay: holdup assay
Design: key: below the threshold = too weak to quantify, mostly under pKd 3.1 to 4
Settings: plain residues with an end cap or a label only (N-terminal biotin on a linker: ado-ado)

Row | pKd | Binder
31 | below the threshold | PKSNSSKEYV [CLDN7, O95471]
32 | below the threshold | DFKHTKSFII [JAM2, P57087]

Molecular target: HTRA2, O43464
Sequence (O43464 355-458): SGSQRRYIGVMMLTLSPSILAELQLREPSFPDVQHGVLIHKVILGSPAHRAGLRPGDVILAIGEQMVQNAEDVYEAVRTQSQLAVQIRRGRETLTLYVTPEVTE
Assay: holdup assay
Design: key: below the threshold = too weak to quantify, mostly under pKd 3.1 to 4
Settings: plain residues with an end cap or a label only (N-terminal biotin on a linker: ado-ado)

Row | pKd | Binder
33 | below the threshold | PKSNSSKEYV [CLDN7, O95471]
34 | 3.88 | DFKHTKSFII [JAM2, P57087]

Molecular target: T4, SHANK1, Q9Y566
Assay: holdup assay
Design: key: below the threshold = too weak to quantify, mostly under pKd 3.1 to 4
Settings: plain residues with an end cap or a label only (N-terminal biotin on a linker: ado-ado)

Row | pKd | Binder
35 | below the threshold | PKSNSSKEYV [CLDN7, O95471]
36 | below the threshold | DFKHTKSFII [JAM2, P57087]

Molecular target: GORASP1, Q9BQQ3
Sequence (Q9BQQ3 1-208): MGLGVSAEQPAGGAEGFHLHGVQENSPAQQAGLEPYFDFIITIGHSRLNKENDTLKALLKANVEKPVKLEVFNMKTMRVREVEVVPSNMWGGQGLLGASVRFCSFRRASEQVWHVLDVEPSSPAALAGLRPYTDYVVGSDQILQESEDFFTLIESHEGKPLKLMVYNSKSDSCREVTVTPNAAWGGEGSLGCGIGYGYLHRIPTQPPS
Assay: holdup assay
Design: key: below the threshold = too weak to quantify, mostly under pKd 3.1 to 4
Settings: plain residues with an end cap or a label only (N-terminal biotin on a linker: ado-ado)

Row | pKd | Binder
37 | below the threshold | PKSNSSKEYV [CLDN7, O95471]
38 | 5.07 | DFKHTKSFII [JAM2, P57087]

Molecular target: T5, SIPA1L2, Q9P2F8
Assay: holdup assay
Design: key: below the threshold = too weak to quantify, mostly under pKd 3.1 to 4
Settings: plain residues with an end cap or a label only (N-terminal biotin on a linker: ado-ado)

Row | pKd | Binder
39 | below the threshold | PKSNSSKEYV [CLDN7, O95471]
40 | below the threshold | DFKHTKSFII [JAM2, P57087]

Molecular target: T6, RHPN1, Q8TCX5
Assay: holdup assay
Design: key: below the threshold = too weak to quantify, mostly under pKd 3.1 to 4
Settings: plain residues with an end cap or a label only (N-terminal biotin on a linker: ado-ado)

Row | pKd | Binder
41 | below the threshold | PKSNSSKEYV [CLDN7, O95471]
42 | below the threshold | DFKHTKSFII [JAM2, P57087]

Molecular target: T7, PARD3B_1, Q8TEW8
Assay: holdup assay
Design: key: below the threshold = too weak to quantify, mostly under pKd 3.1 to 4
Settings: plain residues with an end cap or a label only (N-terminal biotin on a linker: ado-ado)

Row | pKd | Binder
43 | below the threshold | PKSNSSKEYV [CLDN7, O95471]
44 | 4.95 | DFKHTKSFII [JAM2, P57087]

Molecular target: GRID2IP_2, A4D2P6
Sequence (A4D2P6 272-370): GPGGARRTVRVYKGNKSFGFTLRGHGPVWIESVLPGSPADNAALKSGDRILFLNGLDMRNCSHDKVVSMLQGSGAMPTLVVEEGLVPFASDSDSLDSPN
Assay: holdup assay
Design: key: below the threshold = too weak to quantify, mostly under pKd 3.1 to 4
Settings: plain residues with an end cap or a label only (N-terminal biotin on a linker: ado-ado)

Row | pKd | Binder
45 | below the threshold | PKSNSSKEYV [CLDN7, O95471]
46 | below the threshold | DFKHTKSFII [JAM2, P57087]

Molecular target: NHERF4_4, Q86UT5
Sequence (Q86UT5 464-550): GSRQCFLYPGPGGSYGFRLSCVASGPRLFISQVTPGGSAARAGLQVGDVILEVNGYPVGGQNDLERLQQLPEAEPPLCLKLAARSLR
Assay: holdup assay
Design: key: below the threshold = too weak to quantify, mostly under pKd 3.1 to 4
Settings: plain residues with an end cap or a label only (N-terminal biotin on a linker: ado-ado)

Row | pKd | Binder
47 | below the threshold | PKSNSSKEYV [CLDN7, O95471]
48 | below the threshold | DFKHTKSFII [JAM2, P57087]

Molecular target: Inadl_2, Q8NI35
Sequence (Q8NI35 238-335): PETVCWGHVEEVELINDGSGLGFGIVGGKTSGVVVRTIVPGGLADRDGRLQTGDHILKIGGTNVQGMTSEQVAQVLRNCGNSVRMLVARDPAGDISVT
Assay: holdup assay
Design: key: below the threshold = too weak to quantify, mostly under pKd 3.1 to 4
Settings: plain residues with an end cap or a label only (N-terminal biotin on a linker: ado-ado)

Row | pKd | Binder
49 | below the threshold | PKSNSSKEYV [CLDN7, O95471]
50 | below the threshold | DFKHTKSFII [JAM2, P57087]

Molecular target: T8, MPDZ_12, O75970
Assay: holdup assay
Design: key: below the threshold = too weak to quantify, mostly under pKd 3.1 to 4
Settings: plain residues with an end cap or a label only (N-terminal biotin on a linker: ado-ado)

Row | pKd | Binder
51 | below the threshold | PKSNSSKEYV [CLDN7, O95471]
52 | below the threshold | DFKHTKSFII [JAM2, P57087]

Molecular target: MAGI2_2, Q86UL8
Sequence (Q86UL8 410-522): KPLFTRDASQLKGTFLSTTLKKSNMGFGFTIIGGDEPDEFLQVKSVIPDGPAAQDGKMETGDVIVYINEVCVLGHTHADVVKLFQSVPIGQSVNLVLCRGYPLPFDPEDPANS
Assay: holdup assay
Design: key: below the threshold = too weak to quantify, mostly under pKd 3.1 to 4
Settings: plain residues with an end cap or a label only (N-terminal biotin on a linker: ado-ado)

Row | pKd | Binder
53 | below the threshold | PKSNSSKEYV [CLDN7, O95471]
54 | below the threshold | DFKHTKSFII [JAM2, P57087]

Molecular target: LDB3, O75112
Sequence (O75112 1-94): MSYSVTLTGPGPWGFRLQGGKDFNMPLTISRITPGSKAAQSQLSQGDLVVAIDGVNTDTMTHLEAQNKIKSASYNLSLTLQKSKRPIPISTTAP
Assay: holdup assay
Design: key: below the threshold = too weak to quantify, mostly under pKd 3.1 to 4
Settings: plain residues with an end cap or a label only (N-terminal biotin on a linker: ado-ado)

Row | pKd | Binder
55 | below the threshold | PKSNSSKEYV [CLDN7, O95471]
56 | below the threshold | DFKHTKSFII [JAM2, P57087]

Molecular target: DLG4_1, P78352
Sequence (P78352 62-152): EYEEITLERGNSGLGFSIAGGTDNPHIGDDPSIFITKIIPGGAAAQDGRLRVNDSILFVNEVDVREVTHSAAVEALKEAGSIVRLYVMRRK
Assay: holdup assay
Design: key: below the threshold = too weak to quantify, mostly under pKd 3.1 to 4
Settings: plain residues with an end cap or a label only (N-terminal biotin on a linker: ado-ado)

Row | pKd | Binder
57 | below the threshold | PKSNSSKEYV [CLDN7, O95471]
58 | below the threshold | DFKHTKSFII [JAM2, P57087]
